Legend:
Experiment in all cases: TF binding assay; method not stated in the example
[1] = target: T1, Factor VII preparation 1 (recombinant human FVII produced serum-free in CHO clone E11, Example 3) (human, UniProt P08709 61-466, N-linked oligosaccharide chains (Factor VII is normally glycosylated at Asn 145 and Asn 322); 98% of chains contain sialic acid, 6% contain fucosylated antenna)
T1 construct: The preparations differ only in glycoform pattern
T1 sequence (looked up): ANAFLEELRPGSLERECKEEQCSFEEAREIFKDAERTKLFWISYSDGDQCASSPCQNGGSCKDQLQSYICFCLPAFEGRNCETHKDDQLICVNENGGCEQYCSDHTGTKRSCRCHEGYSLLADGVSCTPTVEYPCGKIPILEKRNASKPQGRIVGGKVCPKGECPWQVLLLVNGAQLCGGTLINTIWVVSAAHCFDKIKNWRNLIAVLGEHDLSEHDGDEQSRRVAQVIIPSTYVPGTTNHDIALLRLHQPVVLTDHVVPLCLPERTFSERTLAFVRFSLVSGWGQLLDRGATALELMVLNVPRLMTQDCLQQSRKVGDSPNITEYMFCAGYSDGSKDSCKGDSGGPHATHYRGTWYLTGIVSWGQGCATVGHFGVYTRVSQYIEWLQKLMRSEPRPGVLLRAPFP

[2] = target: T2, Factor VII preparation 2 (recombinant human FVII produced serum-free in CHO clone E11, Example 3) (human, UniProt P08709 61-466, N-linked oligosaccharide chains (Factor VII is normally glycosylated at Asn 145 and Asn 322); 94% of chains contain sialic acid, 13% contain fucosylated antenna)
T2 construct: The preparations differ only in glycoform pattern
T2 sequence (looked up): T1 sequence (looked up)

[3] = target: T3, Factor VII preparation 5 (recombinant human FVII produced serum-free in CHO clone E11, Example 3) (human, UniProt P08709 61-466, N-linked oligosaccharide chains (Factor VII is normally glycosylated at Asn 145 and Asn 322); 86% of chains contain sialic acid, 21% contain fucosylated antenna)
T3 construct: The preparations differ only in glycoform pattern
T3 sequence (looked up): T1 sequence (looked up)

B1: tissue factor (TF) (receptor, UniProt P13726 33-251, looked up)
chain: SGTTNTVAAYNLTWKSTNFKTILEWEPKPVNQVYTVQISTKSGDWKSKCFYTTDTECDLTDEIVKDVKQTYLARVFSYPAGNVESTGSAGEPLYENSPEFTPYLETNLGQPTIQSFEQVGTKVNVTVEDERTLVRRNNTFLSLRDVFGKDLIYTLYYWKSSSSGKKTAKTNTNEFLIDVDKGENYCFSVQAVIPSRTVNRKSTDSPVECMGQEKGEFRE
For B1, the Kd [1] was 2.8 nM, the Kd [2] was 2 nM and the Kd [3] was 2.8 nM.

Reference: patent US20020151471A1 (published 2002)
